Laboratory results reported in the supplement of paper PMC7125110.
± gives the standard error. Fewer inactive variants are shown than the library holds.

B1: glmS ribozyme (parent)
chain: AUAAAAGCGCCAGAACUACAGAAAUGUAGUUGACGAGGAGGAGGUUUAUCGAAUUUUCGGCGGAUGCCUCCAAA

Legend:
Settings in all cases: with glucosamine-6-phosphate
glucosamine-6-phosphate [1] = variants of: B1; assay: self-cleavage kobs at 160 uM GlcN6P; higher = faster cleavage; RNA array
Outline: (§1)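 Barcoded ribozyme variants, transcribed in situ by E. coli RNA polymerase on sequenced MiSeq chips, were followed via a hybridised Cy3 probe at 37 °C. Glucosamine-6-phosphate ranged from 40 μM to 10 mM in HEPES/KCl/Mg(OAc)2 buffer. kobs came from decay fits to per-tile medians, and kcat and KM from weighted Michaelis–Menten fits.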

glucosamine-6-phosphate [2] = variants of: B1; assay: self-cleavage kobs at 640 uM GlcN6P; higher = faster cleavage; RNA array
Outline: as §1

glucosamine-6-phosphate [3] = variants of: B1; assay: self-cleavage kobs at 2500 uM GlcN6P; higher = faster cleavage; RNA array
Outline: as §1

glucosamine-6-phosphate [4] = variants of: B1; assay: self-cleavage kobs at 10000 uM GlcN6P; higher = faster cleavage; RNA array
Outline: as §1

Row | Variant | self-cleavage kobs at 160 uM GlcN6P (glucosamine-6-phosphate [1]) [s⁻¹] | self-cleavage kobs at 640 uM GlcN6P (glucosamine-6-phosphate [2]) [s⁻¹] | self-cleavage kobs at 2500 uM GlcN6P (glucosamine-6-phosphate [3]) [s⁻¹] | self-cleavage kobs at 10000 uM GlcN6P (glucosamine-6-phosphate [4]) [s⁻¹]
1 | A36G G38C A42U G62A C67U C68A U69G | < 1e-05 | – | – | –
2 | G38A A64G C67U | < 1e-05 | – | – | –
3 | G35U C61U | < 1e-05 | < 1e-05 | < 1e-05 | –
4 | G35A A48G G51C A64C | < 1e-05 | – | – | –
5 | U31A G62C C71U | < 1e-05 | < 1e-05 | – | –
6 | U30G C71G | 6.06e-05 ± 2.9e-05 | 9.91e-05 ± 2.4e-05 | 0.000179 ± 4.3e-05 | 0.000543 ± 0.00012
7 | C34U C71U | < 1e-05 | < 1e-05 | < 1e-05 | < 1e-05
8 | A33C U45G U55C U57C A64U | < 1e-05 | < 1e-05 | < 1e-05 | –
9 | C34U C67U | < 1e-05 | – | < 1e-05 | –
10 | C34U C67A | < 1e-05 | – | < 1e-05 | –
11 | A39G G62A | < 1e-05 | – | < 1e-05 | < 1e-05
12 | A33C A36G | < 1e-05 | < 1e-05 | < 1e-05 | < 1e-05
13 | A36C U49A C70U | 4.96e-05 ± 2e-05 | – | – | –
14 | G38A A53C | < 1e-05 | – | – | –
15 | G35U G41A A48G C58G | < 1e-05 | – | – | –
16 | U31G A33U G38U | < 1e-05 | – | – | –
17 | A39G C58U G63U | < 1e-05 | < 1e-05 | – | –
18 | C34U G35C | < 1e-05 | – | < 1e-05 | < 1e-05
19 | G38C U54G | < 1e-05 | < 1e-05 | – | < 1e-05
20 | G38C G43A | < 1e-05 | < 1e-05 | < 1e-05 | < 1e-05
21 | U30G C34A | < 1e-05 | < 1e-05 | < 1e-05 | –
22 | G32U G63C | < 1e-05 | < 1e-05 | – | < 1e-05
23 | G35C G62U | < 1e-05 | < 1e-05 | < 1e-05 | < 1e-05
24 | G38U A42G | < 1e-05 | < 1e-05 | – | –
25 | G38U A42U | < 1e-05 | < 1e-05 | – | < 1e-05
26 | A33G A39U A64U C70G | < 1e-05 | – | < 1e-05 | –

Row | Variant | self-cleavage kobs at 160 uM GlcN6P (glucosamine-6-phosphate [1]) [s⁻¹] | self-cleavage kobs at 640 uM GlcN6P (glucosamine-6-phosphate [2]) [s⁻¹] | self-cleavage kobs at 2500 uM GlcN6P (glucosamine-6-phosphate [3]) [s⁻¹] | self-cleavage kobs at 10000 uM GlcN6P (glucosamine-6-phosphate [4]) [s⁻¹]
27 | G32A A42G G43C G51U G66C | < 1e-05 | < 1e-05 | – | –
28 | U31A G35C U54A A64U | < 1e-05 | – | < 1e-05 | –
29 | U31C G62U G66C | < 1e-05 | – | – | –
30 | G37A A39U U54C | 8.28e-05 ± 3.4e-05 | 0.00016 ± 1.9e-05 | 0.000423 ± 6.7e-05 | –
31 | U31A A33G C34U G59C | < 1e-05 | < 1e-05 | – | –
32 | G32A G51C | < 1e-05 | < 1e-05 | < 1e-05 | –
33 | G40C A53U C70U | 9.81e-05 ± 3.6e-05 | 9.65e-05 ± 2.1e-05 | 0.000268 ± 5.4e-05 | –
34 | U30C G59U | < 1e-05 | < 1e-05 | < 1e-05 | < 1e-05
35 | A36U A48G | < 1e-05 | < 1e-05 | – | < 1e-05
36 | A39G U46G A53C | 5.35e-05 ± 2.3e-05 | 0.000315 ± 0.00012 | – | –
37 | G35A G43U U45C A53G G59A | < 1e-05 | < 1e-05 | – | –
38 | G35U C71U | < 1e-05 | < 1e-05 | < 1e-05 | < 1e-05
39 | C34G U56A G62A C67U | < 1e-05 | – | – | –
40 | G32A A53C C71U | 3.67e-05 ± 1.6e-05 | 7.17e-05 ± 2.3e-05 | 0.000197 ± 4.7e-05 | –
41 | U30G A39U A42U | 0.000126 ± 5.7e-05 | – | – | –
42 | G32A A42G U56A C70A | < 1e-05 | – | – | –
43 | A36U U49G A52C | < 1e-05 | – | – | –
44 | G35C U69G | < 1e-05 | – | < 1e-05 | –
45 | A33C U56C | < 1e-05 | < 1e-05 | < 1e-05 | < 1e-05
46 | G32U G43U | < 1e-05 | – | < 1e-05 | –
47 | A33C G35A | < 1e-05 | < 1e-05 | < 1e-05 | < 1e-05
48 | U31G U45G U49A U56A | < 1e-05 | – | – | < 1e-05
49 | G40A U45C | 4.64e-05 ± 1.6e-05 | – | 0.000553 ± 0.00016 | –
50 | A36U U45A | < 1e-05 | < 1e-05 | – | –
51 | G32C C34A C61U C67U | < 1e-05 | – | – | –
52 | A33U U65G | < 1e-05 | < 1e-05 | – | –

Row | Variant | self-cleavage kobs at 160 uM GlcN6P (glucosamine-6-phosphate [1]) [s⁻¹] | self-cleavage kobs at 640 uM GlcN6P (glucosamine-6-phosphate [2]) [s⁻¹] | self-cleavage kobs at 2500 uM GlcN6P (glucosamine-6-phosphate [3]) [s⁻¹] | self-cleavage kobs at 10000 uM GlcN6P (glucosamine-6-phosphate [4]) [s⁻¹]
53 | G38U G41C G59C | < 1e-05 | < 1e-05 | – | –
54 | U30G U57C G62C | < 1e-05 | < 1e-05 | – | –
55 | U30C U54G C68A | 0.000132 ± 4.9e-05 | – | – | –
56 | C34U G35U A39C G63A C67U | < 1e-05 | – | – | –
57 | G35U A42C U55C | < 1e-05 | < 1e-05 | – | –
58 | A33C C34G G40U A48U C61A | < 1e-05 | < 1e-05 | < 1e-05 | –
59 | A36U A64G C68G | 7.51e-05 ± 3e-05 | – | – | –
60 | A39C G51C U55A | < 1e-05 | – | < 1e-05 | –
61 | G35U G51A | < 1e-05 | < 1e-05 | – | < 1e-05
62 | G37C U47C A52U | < 1e-05 | – | – | –
63 | G35U G43U A53C C70A | < 1e-05 | – | – | –
64 | C34A A64C C68U | < 1e-05 | < 1e-05 | < 1e-05 | –
65 | A33C G51U | < 1e-05 | < 1e-05 | – | < 1e-05
66 | U30G G40A | 0.000128 ± 3.7e-05 | 0.000261 ± 6.3e-05 | 0.000813 ± 0.00013 | –
67 | U30G G32A A48G G62C | < 1e-05 | < 1e-05 | < 1e-05 | –
68 | A36U A42U | < 1e-05 | < 1e-05 | < 1e-05 | < 1e-05
69 | A33C G59A | < 1e-05 | < 1e-05 | < 1e-05 | –
70 | U30G C50G C58G G60U C61G | 0.000251 ± 7.4e-05 | 0.00014 ± 2.9e-05 | 0.00022 ± 6.9e-05 | –
71 | G35C G60U G62C | < 1e-05 | < 1e-05 | – | –
72 | G35A U49A C67G C68G | 0.000246 ± 7.8e-05 | 9.7e-05 ± 2.3e-05 | 0.000118 ± 3.7e-05 | –
73 | G40A U55A | 0.000151 ± 5.3e-05 | 0.00156 ± 0.0003 | 0.000842 ± 0.00022 | –
74 | G35C A39U U49G C50G | < 1e-05 | – | < 1e-05 | –
75 | A36U U65C | < 1e-05 | – | – | –
76 | C34U U56G | < 1e-05 | – | < 1e-05 | –
77 | C34U U56C | < 1e-05 | < 1e-05 | < 1e-05 | < 1e-05
78 | A33U C50U G62C | < 1e-05 | < 1e-05 | < 1e-05 | –

Row | Variant | self-cleavage kobs at 160 uM GlcN6P (glucosamine-6-phosphate [1]) [s⁻¹] | self-cleavage kobs at 640 uM GlcN6P (glucosamine-6-phosphate [2]) [s⁻¹] | self-cleavage kobs at 2500 uM GlcN6P (glucosamine-6-phosphate [3]) [s⁻¹] | self-cleavage kobs at 10000 uM GlcN6P (glucosamine-6-phosphate [4]) [s⁻¹]
79 | G38C U46G A64U | < 1e-05 | < 1e-05 | – | –
80 | G35A U55C C70A | < 1e-05 | < 1e-05 | – | –
81 | G35A G41C | < 1e-05 | < 1e-05 | – | –
82 | A39C U49A C61U C68G | < 1e-05 | – | < 1e-05 | –
83 | G38A G44U C58A | < 1e-05 | < 1e-05 | < 1e-05 | –
84 | G32U G35A A42C | < 1e-05 | < 1e-05 | < 1e-05 | –
85 | G35C A42U G43A A52U | < 1e-05 | < 1e-05 | < 1e-05 | –
86 | U30G G63A | < 1e-05 | < 1e-05 | < 1e-05 | < 1e-05
87 | A33G C67G C70A | 4.49e-05 ± 2.2e-05 | – | – | –
88 | A33G A42U G59U | < 1e-05 | – | – | –
89 | G38C A42C | < 1e-05 | < 1e-05 | < 1e-05 | < 1e-05
90 | U31A A52C | < 1e-05 | – | < 1e-05 | –
91 | A36C G38C U56C | < 1e-05 | – | < 1e-05 | –
92 | G37A C50A C61G | < 1e-05 | < 1e-05 | – | –
93 | U30G U31G C50A A52U G62U | < 1e-05 | – | – | –
94 | G37A U49C | < 1e-05 | < 1e-05 | < 1e-05 | < 1e-05
95 | A33G U47G A48C G51C | < 1e-05 | – | – | –
96 | A36C G41C | < 1e-05 | < 1e-05 | < 1e-05 | < 1e-05
97 | G35A G41C U69A | < 1e-05 | < 1e-05 | < 1e-05 | –
98 | G40A A42C A48G | < 1e-05 | < 1e-05 | < 1e-05 | < 1e-05
99 | G35A G41U A48G | < 1e-05 | – | < 1e-05 | –
100 | A39C G60C | < 1e-05 | – | – | < 1e-05
101 | C34A A42U | < 1e-05 | < 1e-05 | < 1e-05 | < 1e-05
102 | G37C A39G G44A | < 1e-05 | < 1e-05 | – | –
103 | G40A C50U | < 1e-05 | < 1e-05 | – | < 1e-05
